Data: patent US9688764B2, “Methods of treating breast cancer by administering anti-human prolactin receptor (PRLR) antibodies” (REGENERON PHARMACEUTICALS, INC., priority 2013, dated 2017)

T1: HEK293/hPRLR (Homo sapiens, UniProt P16471)
T1 construct: HA; expressed in transfected cells; host or cells: HEK293
T1 sequence (P16471 25-622): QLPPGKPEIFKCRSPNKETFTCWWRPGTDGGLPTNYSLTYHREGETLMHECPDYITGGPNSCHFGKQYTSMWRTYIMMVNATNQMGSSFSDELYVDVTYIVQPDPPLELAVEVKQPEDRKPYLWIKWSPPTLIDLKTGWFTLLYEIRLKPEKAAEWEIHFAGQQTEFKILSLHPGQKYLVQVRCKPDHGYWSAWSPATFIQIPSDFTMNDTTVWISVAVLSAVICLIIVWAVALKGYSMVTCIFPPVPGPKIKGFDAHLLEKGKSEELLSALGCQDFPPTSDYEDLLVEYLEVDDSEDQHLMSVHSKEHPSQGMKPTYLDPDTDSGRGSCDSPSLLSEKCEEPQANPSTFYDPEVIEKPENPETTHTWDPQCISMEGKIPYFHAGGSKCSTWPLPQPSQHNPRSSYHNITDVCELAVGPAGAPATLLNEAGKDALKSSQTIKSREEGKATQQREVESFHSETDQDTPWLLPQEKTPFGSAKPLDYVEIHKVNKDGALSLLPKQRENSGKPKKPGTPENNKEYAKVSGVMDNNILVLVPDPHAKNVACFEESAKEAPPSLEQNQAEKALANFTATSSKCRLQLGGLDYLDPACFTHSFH

T2: PRLR-expressing cells (T47D) (Homo sapiens, UniProt P16471)
T2 construct: a native PRLR expressing cell line (T47D); endogenous in cells; host or cells: T47D
T2 sequence (P16471 25-622): T1 sequence (P16471 25-622)

B1: H1H6801P: anti-PRLR antibody, human IgG1 Fc; HCVR/LCVR SEQ ID NOs 210/218 (antibody, V domains shown)
VH: QVQLQQSGPGLVKPSQTLSLTCVISGDSVSSNTAWNWVRQSPSRGLEWLGRTYYRSKWYNDYAVSVKSRITINPDTSKNQFSLLMNSVTPEDTAVYYCARVVRGLNYFDYWGQGTLVTVSS
VL: DIVMTQSPDSLAVSLGERATINCKSSQSVLYNSNNKNYLAWYQQKPGQPPKLLIYWSSSRESGVPDRFSGSGSGTDFTLTISGLQAEDVAIYYCQQYSTIPYTFGQGTKLEIK
modifications: human IgG1 Fc
B2: H1H6804P: anti-PRLR antibody, human IgG1 Fc; HCVR/LCVR SEQ ID NOs 242/250 (antibody, V domains shown)
VH: QVTLKESGPVLVKPTQTLSLTCTVSGFSLSDAGMGVSWIRQPPGKALEWLAHIFSNDGKSYSTSLKSRLTISKDTSKRQVVLTMTNMDPVDTATYYCARIRTGTYSLYLDYWGQGTLVTVSS
VL: DIQMTQSPSSLSASVGDRVTITCRASQSINSYLNWYQQKPGKAPKLLLYFASSLQSGVPSRFSGSGSGTDFTLTISSLQPEDFASYYCQESYSTPWTFGQGTKVEIK
modifications: human IgG1 Fc
B3: H1H6953N: human IgG1 Fc form of H1M6953N; anti-PRLR; HCVR/LCVR SEQ ID NOs 274/282 (antibody, V domains shown)
VH: EVQLLESGGGLVQPGGTLRLSCAASGFTFSAYAMSWVRQAPGKGLEWVSSINVRAGDTYYADSVKGRFTISRDNSKNTLFLLMNSLRAEDTAAYYCAKARYSSNWGFDFWGQGTLVTVSS
VL: DIVMTQSPDSLTVSLGARTTINCQSSQTILHSSNNHNYLAWYQQKPGLPPKLLIYWSSTRESGVPDRFSGSGSGTDFTLTISSLQAEDVAIYYCQQYSNTPYTFGQGTKLEIN
modifications: human IgG1 Fc
B4: H1H6803P: anti-PRLR antibody, human IgG1 Fc; HCVR/LCVR SEQ ID NOs 226/234 (antibody, V domains shown)
VH: EVQLVESGGGVVRPGGSLRLSCAASGFKFDDYGMTWVRHVPGKGLEWVSGINWNGGRTGYTDSVKGRFTISRDNAKNSLYLQMNSLRAEDTALYHCAGARRDAFDIWGQGTMVTVSS
VL: DIQMTQSPSSLSASIGDRVTITCRASQNIIKYLNWYQQNAGKAPKLLIYTASSLQSGVPSRFSGSGSGTDFTLTISSLQPEDFATYYCQQSSSSPYTFGQGTKLEIK
modifications: human IgG1 Fc

These molecules were tested on HEK293 (non-expressing parental cells) (assay: FACS cell surface binding). Conditions: not given.
Method in brief: (§1)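 HEK293 lines stably expressing HA-tagged human, cynomolgus or mouse PRLR, native-expressing T47D and parental HEK293 tested by flow cytometry. Cells (1×10^5) stained with primary antibody 30 min on ice, then PE anti-human secondary; MFI expressed as fold over isotype control.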

| Molecule | FACS Cell Binding (Fold Above Background) |
| --- | --- |
| B1 | 7 |
| B2 | 1 |
| B3 | 2 |
| B4 | 1 |

These molecules were tested against T1, HEK293/hPRLR (assay: FACS cell surface binding). Conditions: not given.
Method in brief: as §1

| FACS Cell Binding (Fold Above Background) | Molecule |
| --- | --- |
| 47 | B1 |
| 1 | B2 |
| 37 | B3 |
| 39 | B4 |

These molecules were tested on HEK293/mfPRLR (assay: FACS cell surface binding). Conditions: not given.
Sequence of HEK293/mfPRLR (as listed by the source): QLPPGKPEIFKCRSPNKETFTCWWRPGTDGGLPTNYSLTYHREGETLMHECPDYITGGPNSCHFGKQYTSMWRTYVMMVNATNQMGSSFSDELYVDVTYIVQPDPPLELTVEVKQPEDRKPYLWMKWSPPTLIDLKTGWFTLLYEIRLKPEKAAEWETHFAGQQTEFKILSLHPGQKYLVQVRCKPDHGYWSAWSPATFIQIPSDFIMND
Parameters: species or system macaca fascicularis
Method in brief: as §1

| Molecule | FACS Cell Binding (Fold Above Background) |
| --- | --- |
| B1 | 88 |
| B2 | 29 |
| B3 | 29 |
| B4 | 28 |

What follows are molecules tested against T2, PRLR-expressing cells (T47D) (assay: Antibody binding and internalization by PRLR-expressing cells (imaging)). Conditions: [mAb] (0.67 nM), alexa488 intensity in intracellular vesicles, 1 h at 37° C.
Assay type: cell-based

| % Internalization relative to Control I [%] | Molecule |
| --- | --- |
| 148.9 | B1 |
| 138.9 | B2 |
| 153.9 | B3 |
| 190.5 | B4 |

Same assay, conditions: [mAb] (0.67 nM), whole cell alexa488 intensity at 37° C.

| % Total Binding relative to Control I [%] | Molecule |
| --- | --- |
| 155.7 | B1 |
| 149.6 | B2 |
| 164.2 | B3 |
| 205.5 | B4 |

Each molecule was assayed against T3, hPRLR.mmh (soluble monomeric human PRLR) (Homo sapiens, UniProt P16471) (assay: Surface plasmon resonance (Biacore T200), mAb-capture format). Conditions: 25° C., antibody-capture format, analyte hPRLR.mmh.
T3 construct: soluble monomeric (hPRLR.mmh); mmh (myc-myc-hexahistidine)
T3 sequence (P16471 with tags, fused parts or gaps): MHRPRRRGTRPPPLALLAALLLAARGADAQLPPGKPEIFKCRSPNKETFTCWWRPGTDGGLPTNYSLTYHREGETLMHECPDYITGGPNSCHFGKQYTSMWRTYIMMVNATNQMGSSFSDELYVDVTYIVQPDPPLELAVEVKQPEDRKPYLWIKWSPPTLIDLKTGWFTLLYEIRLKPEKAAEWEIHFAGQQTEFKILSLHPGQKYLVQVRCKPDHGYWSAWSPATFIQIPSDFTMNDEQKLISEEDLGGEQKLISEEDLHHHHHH
Assay type: binding
Method in brief: (§2)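 Rate constants ka and kd were obtained by fitting sensorgrams to a 1:1 model. Test mAbs, as human IgG1 Fc forms, sat on an anti-human Fc surface while soluble PRLR ectodomain protein passed over it, either monomeric (human or cynomolgus .mmh) or dimeric (human mFc fusion).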

| Kd [nM] | T½ [min] | Molecule |
| --- | --- | --- |
| 0.894 | 15 | B1 |
| 1.4 | 18 | B2 |
| 0.268 | 54.5 | B3 |
| 1.67 | 84 | B4 |

Same assay, conditions: 37° C., antibody-capture format, analyte hPRLR.mmh

| Kd [nM] | T½ [min] | Molecule |
| --- | --- | --- |
| 4.63 | 3 | B1 |
| 6.34 | 3 | B2 |
| 1.11 | 9.4 | B3 |
| 2.83 | 32 | B4 |

The molecules below were run against mfPRLR.mmh (monomeric macaca fascicularis PRLR) in the same assay as above. Conditions: 25° C., antibody-capture format, analyte mfPRLR.mmh.
Sequence of mfPRLR.mmh (monomeric macaca fascicularis PRLR) (as listed by the source): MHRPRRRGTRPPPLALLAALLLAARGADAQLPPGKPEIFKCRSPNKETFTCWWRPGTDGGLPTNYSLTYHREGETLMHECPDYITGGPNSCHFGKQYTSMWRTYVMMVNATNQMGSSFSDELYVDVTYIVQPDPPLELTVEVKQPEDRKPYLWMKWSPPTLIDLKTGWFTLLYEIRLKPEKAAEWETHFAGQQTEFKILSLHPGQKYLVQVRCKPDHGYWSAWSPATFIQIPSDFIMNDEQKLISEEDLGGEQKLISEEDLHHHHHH
Assay type: binding
Method in brief: as §2

| Kd [nM] | Molecule | T½ [min] |
| --- | --- | --- |
| 1.88 | B1 | 9 |
| 1.99 | B2 | 18 |
| 0.438 | B3 | 36.3 |
| 3.37 | B4 | 55 |

Same assay, conditions: 37° C., antibody-capture format, analyte mfPRLR.mmh

| Kd [nM] | Molecule | T½ [min] |
| --- | --- | --- |
| 10.8 | B1 | 1 |
| 9.35 | B2 | 3 |
| 2.71 | B3 | 4.5 |
| 7.28 | B4 | 18 |

What follows are molecules tested against T4, hPRLR.mFc (soluble dimeric human PRLR) (Homo sapiens, UniProt P16471) in the same assay as above. Conditions: 25° C., antibody-capture format, analyte hPRLR.mFc.
T4 construct: dimeric (hPRLR.mFc)
T4 sequence (P16471 with tags, fused parts or gaps): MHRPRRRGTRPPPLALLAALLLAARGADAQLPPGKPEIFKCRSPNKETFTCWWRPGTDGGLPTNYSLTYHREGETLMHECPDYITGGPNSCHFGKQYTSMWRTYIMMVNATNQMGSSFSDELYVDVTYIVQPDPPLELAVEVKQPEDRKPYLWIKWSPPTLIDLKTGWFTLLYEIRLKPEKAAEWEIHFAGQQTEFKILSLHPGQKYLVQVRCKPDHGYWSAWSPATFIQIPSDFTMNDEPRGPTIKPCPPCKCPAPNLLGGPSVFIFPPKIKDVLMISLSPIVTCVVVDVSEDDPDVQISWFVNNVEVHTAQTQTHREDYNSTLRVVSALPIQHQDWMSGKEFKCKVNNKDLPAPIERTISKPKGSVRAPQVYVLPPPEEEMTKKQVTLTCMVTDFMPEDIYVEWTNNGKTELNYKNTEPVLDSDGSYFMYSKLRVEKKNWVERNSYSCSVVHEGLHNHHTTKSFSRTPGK
Assay type: binding
Method in brief: as §2

| Kd [nM] | T½ [min] | Molecule |
| --- | --- | --- |
| 0.161 | 106 | B1 |
| 0.193 | 133 | B2 |
| 0.067 | 242.2 | B3 |
| 0.607 | 184 | B4 |

Same assay, conditions: 37° C., antibody-capture format, analyte hPRLR.mFc

| Kd [nM] | T½ [min] | Molecule |
| --- | --- | --- |
| 0.279 | 52 | B1 |
| 0.369 | 56 | B2 |
| 0.116 | 68.0 | B3 |
| 0.461 | 186 | B4 |
